We go through six molecules from US7348407 (dated 2008).

Assay [1] concerns the target T1, his-tagged wild-type JMY (pET-JMY, bacterially expressed) (UniProt Q9QXM1 1-983).
T1 construct: also called His-JMY; purified recombinant JMY; not shown: His tag from pET28a
Description: summary of the biochemical binding assays.

In assay [2] the target is T2, Flag-tagged full-length p300 (baculovirus expressed, on M2-anti-flag antibody agarose) (UniProt Q09472 2-2414, limits assumed).
T2 construct: mature; also called flag-p300; flag-tagged wild-type p300; not shown: Flag tag
T2 sequence (Q09472 2-2414 limits assumed): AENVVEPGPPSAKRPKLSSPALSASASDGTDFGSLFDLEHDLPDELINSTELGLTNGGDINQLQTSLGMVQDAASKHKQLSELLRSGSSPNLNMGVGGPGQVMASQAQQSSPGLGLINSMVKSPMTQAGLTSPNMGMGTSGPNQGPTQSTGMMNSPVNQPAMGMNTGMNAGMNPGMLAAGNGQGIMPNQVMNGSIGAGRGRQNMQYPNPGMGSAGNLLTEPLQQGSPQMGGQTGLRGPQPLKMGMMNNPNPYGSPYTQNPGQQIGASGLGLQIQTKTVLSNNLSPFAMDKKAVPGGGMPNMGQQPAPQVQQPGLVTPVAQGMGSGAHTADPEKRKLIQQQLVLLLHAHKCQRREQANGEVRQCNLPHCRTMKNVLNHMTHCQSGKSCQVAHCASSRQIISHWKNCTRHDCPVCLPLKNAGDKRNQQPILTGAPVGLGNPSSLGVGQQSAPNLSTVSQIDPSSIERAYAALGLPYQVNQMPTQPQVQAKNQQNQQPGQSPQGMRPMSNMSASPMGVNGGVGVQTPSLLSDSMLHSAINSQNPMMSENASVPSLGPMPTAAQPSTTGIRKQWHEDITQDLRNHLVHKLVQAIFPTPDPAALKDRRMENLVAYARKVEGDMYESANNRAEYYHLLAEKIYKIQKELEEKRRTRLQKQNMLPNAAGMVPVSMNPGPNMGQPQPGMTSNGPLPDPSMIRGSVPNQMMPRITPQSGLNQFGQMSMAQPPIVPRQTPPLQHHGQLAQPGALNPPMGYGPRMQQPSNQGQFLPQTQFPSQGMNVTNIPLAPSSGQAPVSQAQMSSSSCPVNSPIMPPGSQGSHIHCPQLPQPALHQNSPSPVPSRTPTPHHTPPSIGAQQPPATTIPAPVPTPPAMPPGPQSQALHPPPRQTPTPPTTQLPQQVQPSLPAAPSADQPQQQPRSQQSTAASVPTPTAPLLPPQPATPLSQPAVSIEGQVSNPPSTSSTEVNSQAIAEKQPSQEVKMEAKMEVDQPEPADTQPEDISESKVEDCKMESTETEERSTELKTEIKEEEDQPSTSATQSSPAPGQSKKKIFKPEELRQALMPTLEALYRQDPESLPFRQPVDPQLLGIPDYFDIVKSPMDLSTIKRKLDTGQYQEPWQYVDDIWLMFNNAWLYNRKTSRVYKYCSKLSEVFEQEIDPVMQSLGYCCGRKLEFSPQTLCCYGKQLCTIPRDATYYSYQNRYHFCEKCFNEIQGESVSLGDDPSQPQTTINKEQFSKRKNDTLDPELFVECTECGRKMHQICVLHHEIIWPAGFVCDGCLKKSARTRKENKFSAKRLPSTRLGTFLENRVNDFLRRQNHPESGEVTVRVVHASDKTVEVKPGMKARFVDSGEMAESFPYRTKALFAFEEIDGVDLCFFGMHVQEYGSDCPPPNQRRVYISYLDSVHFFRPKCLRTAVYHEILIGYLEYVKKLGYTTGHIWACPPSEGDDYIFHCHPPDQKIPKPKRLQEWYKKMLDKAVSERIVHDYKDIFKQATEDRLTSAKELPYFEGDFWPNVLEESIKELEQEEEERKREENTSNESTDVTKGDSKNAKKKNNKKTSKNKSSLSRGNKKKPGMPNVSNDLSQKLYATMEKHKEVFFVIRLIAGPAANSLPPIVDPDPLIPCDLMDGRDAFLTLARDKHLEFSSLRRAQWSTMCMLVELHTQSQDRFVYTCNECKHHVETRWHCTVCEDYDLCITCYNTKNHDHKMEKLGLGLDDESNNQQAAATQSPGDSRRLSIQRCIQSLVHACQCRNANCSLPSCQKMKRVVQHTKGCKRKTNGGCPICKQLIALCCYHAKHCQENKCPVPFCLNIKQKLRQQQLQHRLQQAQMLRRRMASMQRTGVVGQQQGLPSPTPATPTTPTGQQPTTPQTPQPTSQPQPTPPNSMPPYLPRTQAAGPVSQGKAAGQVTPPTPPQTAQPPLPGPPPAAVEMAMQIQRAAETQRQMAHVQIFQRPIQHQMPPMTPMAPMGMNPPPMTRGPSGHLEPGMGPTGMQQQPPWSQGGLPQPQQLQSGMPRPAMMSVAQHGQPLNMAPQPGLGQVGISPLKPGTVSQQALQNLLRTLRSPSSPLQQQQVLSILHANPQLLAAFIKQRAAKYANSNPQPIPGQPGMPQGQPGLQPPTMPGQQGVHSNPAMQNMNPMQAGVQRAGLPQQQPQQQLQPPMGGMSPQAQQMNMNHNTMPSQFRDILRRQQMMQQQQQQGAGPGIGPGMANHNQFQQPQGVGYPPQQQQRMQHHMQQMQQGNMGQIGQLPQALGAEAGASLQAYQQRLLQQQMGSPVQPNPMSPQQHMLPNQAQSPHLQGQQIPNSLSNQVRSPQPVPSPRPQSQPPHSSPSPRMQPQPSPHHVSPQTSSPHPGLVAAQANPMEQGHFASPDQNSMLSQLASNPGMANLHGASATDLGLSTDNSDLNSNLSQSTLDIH
Description: biochemical binding assay with a panel of p300 derivatives.

The target of assay [3] is JMY1-119 (pCMV-HA-JMY1-119, in vitro translated) (UniProt Q9QXM1 1-119). Kind of assay: in vitro translated JMY derivatives tested for binding to STRAP.
The target in assay [4] is T3, JMY683-983 (pCMV-HA-JMY683-983, in vitro translated) (UniProt Q9QXM1 683-983).
T3 sequence (looked up): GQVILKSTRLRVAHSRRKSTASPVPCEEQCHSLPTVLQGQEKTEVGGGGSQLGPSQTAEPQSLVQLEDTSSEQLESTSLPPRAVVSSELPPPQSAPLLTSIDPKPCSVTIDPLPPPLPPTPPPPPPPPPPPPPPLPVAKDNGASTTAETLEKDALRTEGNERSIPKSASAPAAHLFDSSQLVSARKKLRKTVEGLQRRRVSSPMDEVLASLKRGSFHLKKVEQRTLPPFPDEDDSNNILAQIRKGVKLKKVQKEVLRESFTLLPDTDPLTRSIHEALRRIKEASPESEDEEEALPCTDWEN
The description is as above.

In assay [5] the target is T1, his-tagged wild-type JMY (pET-JMY, …). Kind of assay: in vitro translated STRAP derivative binding to his-tagged wild-type JMY.
For assay [6], the target named is T2, Flag-tagged full-length p300 …. Kind of assay: in vitro translated STRAP derivative binding to flag-tagged wild-type p300 on anti-flag agarose.
Assay [7] has as its target T1, his-tagged wild-type JMY (pET-JMY, …). Description: binding properties of the STRAP mutant derivative.
Assay [8] has as its target T2, Flag-tagged full-length p300 …. Description: binding properties of the STRAP mutant derivative.
Assay [9] addresses p300 (pCMV-p300, expressed in transfected cells) (UniProt Q09472 1-2414). Description: co-immunoprecipitation from STRAP expressing U2OS cells treated with etoposide, against untreated cells.
Assay [10] has as its target T1, his-tagged wild-type JMY (pET-JMY, …). Kind of assay: biochemical binding assay with STRAP derivatives (summary in FIG. 7).
In assay [11] the target is T2, Flag-tagged full-length p300 …. The description is as above.

Chain of p300 (pCMV-p300, expressed in transfected cells) (Q09472 whole entry): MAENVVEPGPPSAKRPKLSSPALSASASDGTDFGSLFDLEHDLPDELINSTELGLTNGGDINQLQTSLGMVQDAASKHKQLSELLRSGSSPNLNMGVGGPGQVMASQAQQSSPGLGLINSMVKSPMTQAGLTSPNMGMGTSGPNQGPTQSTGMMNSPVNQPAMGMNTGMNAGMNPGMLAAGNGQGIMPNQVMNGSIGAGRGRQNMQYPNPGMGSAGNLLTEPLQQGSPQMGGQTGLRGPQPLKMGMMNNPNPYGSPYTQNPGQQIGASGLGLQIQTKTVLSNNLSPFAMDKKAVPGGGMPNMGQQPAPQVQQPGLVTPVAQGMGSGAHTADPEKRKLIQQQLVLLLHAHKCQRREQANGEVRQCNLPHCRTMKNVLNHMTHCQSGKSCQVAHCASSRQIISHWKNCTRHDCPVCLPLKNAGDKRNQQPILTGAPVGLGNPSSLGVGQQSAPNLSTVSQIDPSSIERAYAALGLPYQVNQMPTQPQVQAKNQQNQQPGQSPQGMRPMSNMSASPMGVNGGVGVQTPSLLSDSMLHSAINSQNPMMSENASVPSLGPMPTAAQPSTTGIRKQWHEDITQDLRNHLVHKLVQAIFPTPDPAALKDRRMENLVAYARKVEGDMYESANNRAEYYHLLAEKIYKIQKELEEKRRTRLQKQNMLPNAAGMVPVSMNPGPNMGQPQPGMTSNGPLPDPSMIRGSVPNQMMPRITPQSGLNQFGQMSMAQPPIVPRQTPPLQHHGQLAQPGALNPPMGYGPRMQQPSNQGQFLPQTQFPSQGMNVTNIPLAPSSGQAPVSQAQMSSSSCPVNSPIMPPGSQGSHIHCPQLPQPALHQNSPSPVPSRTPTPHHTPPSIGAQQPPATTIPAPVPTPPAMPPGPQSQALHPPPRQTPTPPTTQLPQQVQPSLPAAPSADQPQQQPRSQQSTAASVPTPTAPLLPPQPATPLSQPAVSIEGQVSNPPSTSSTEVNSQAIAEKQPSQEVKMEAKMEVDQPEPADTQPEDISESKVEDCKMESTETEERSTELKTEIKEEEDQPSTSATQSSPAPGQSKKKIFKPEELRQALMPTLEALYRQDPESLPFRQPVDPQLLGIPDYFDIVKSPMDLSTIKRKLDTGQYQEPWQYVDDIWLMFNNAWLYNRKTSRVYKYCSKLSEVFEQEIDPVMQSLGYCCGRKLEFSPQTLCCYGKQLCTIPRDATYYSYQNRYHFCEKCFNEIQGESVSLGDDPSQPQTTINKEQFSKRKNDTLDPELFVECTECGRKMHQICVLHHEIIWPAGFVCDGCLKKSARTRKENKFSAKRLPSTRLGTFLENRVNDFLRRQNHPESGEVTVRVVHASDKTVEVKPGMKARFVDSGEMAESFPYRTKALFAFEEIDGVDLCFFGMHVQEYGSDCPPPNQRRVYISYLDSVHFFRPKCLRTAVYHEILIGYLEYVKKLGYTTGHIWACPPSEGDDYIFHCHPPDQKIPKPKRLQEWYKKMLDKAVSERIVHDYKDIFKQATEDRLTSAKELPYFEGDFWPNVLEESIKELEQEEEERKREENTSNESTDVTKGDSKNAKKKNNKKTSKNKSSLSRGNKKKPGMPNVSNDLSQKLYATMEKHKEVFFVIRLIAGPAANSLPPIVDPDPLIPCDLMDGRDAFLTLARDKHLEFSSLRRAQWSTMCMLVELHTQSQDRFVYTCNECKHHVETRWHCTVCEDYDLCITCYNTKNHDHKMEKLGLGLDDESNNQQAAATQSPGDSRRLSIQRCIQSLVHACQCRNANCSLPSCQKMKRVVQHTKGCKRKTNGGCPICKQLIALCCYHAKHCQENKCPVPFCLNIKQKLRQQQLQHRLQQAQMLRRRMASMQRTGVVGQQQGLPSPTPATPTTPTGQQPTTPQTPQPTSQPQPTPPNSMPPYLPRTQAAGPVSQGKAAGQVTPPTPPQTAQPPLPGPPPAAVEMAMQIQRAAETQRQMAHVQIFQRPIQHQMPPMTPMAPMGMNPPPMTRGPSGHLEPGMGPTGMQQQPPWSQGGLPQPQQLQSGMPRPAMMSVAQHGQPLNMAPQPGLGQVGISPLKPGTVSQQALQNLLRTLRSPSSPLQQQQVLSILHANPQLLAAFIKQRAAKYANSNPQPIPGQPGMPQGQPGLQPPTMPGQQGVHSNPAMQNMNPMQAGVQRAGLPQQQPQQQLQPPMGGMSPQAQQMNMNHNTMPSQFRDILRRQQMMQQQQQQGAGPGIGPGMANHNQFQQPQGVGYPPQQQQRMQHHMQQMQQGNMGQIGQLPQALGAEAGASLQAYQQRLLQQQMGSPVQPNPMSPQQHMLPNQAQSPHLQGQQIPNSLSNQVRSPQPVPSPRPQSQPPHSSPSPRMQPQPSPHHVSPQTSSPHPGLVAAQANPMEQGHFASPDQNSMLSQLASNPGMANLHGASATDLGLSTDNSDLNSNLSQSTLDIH

B1: STRAP (construct not stated for the experiment) (other)
chain: EAKHVLQKLQGLVDRLYCFRDSYFETHSVEDAGRKQQDVQEEMEKTLQQMEEVLGSAQVEAQALMLKGKALNVTPDYSPEAEVLLSKAVKLEPELVEAWNQLGEVYWKKGDVTSAHTCFSGALTHCKNKVSLQNLSMVLRQLQTDSGDEHSRHVMDSVRQAKLAVQMDVLDGRSWYILGNAYLSLYFNTGQNPKISQQALSAYAQAEKVDRKASSNPDLHLNRATLHKYEESYGEALEGFSQAAALDPAWPEPQQREQQLLEFLSRLTSLLESKGKTKPKKLQSMLGSLRPAHLGPCGDGRYQSASGQKMTLELKPLSTLQPGVNSGTVVLGKVVFSLTTEEKVPFTFGLVDSDGPCYAVMVYNVVQSWGVLIGDSVAIPEPNLRHHQIRHKGKDYSFSSVRVETPLLLVVNGKPQNSSSQASATVASRPQ
notes: also called 60,000 molecular weight STRAP polypeptide
In the case of B1, the binding result in assay [1], in [2], in assay [3] and in [4] was “binds” throughout.

B2: STRAP123-205 (other, not shown: small tags and cut ends)
chain: HTCFSGALTHCKNKVSLQNLSMVLRQLQTDSGDEHSRHVMDSVRQAKLAVQMDVLDGRSWYILGNAYLSLYFNTGQNPKISQQ
notes: In vitro translated
As for B2, the binding result in assay [5] is given as “binds”.

B3: STRAP206-438 (other, not shown: small tags and cut ends)
chain: ALSAYAQAEKVDRKASSNPDLHLNRATLHKYEESYGEALEGFSQAAALDPAWPEPQQREQQLLEFLSRLTSLLESKGKTKPKKLQSMLGSLRPAHLGPCGDGRYQSASGQKMTLELKPLSTLQPGVNSGTVVLGKVVFSLTTEEKVPFTFGLVDSDGPCYAVMVYNVVQSWGVLIGDSVAIPEPNLRHHQIRHKGKDYSFSSVRVETPLLLVVNGKPQNSSSQASATVASRPQ
notes: In vitro translated
B3: the binding result in assay [5] and in assay [6] was “binds” in each case.

B4: STRAP8-205 (other, not shown: small tags and cut ends)
chain: EAKHVLQKLQGLVDRLYCFRDSYFETHSVEDAGRKQQDVQEEMEKTLQQMEEVLGSAQVEAQALMLKGKALNVTPDYSPEAEVLLSKAVKLEPELVEAWNQLGEVYWKKGDVTSAHTCFSGALTHCKNKVSLQNLSMVLRQLQTDSGDEHSRHVMDSVRQAKLAVQMDVLDGRSWYILGNAYLSLYFNTGQNPKISQQ
For the molecule B4, the binding result is recorded as “binds” in assay [7] and “no binding” in assay [8].

B5: JMY (pCMV-JMY, expressed in transfected cells) (other, UniProt Q9QXM1 1-983, looked up)
chain: MSFALEETLESDWVAVRPHVFDEREKHKFVFIVAWNEIEGKFAITCHNRTAQRQRSGSREQAGTPASDGSRGPGSPAARGRSEAAASATAALRSPGPRKSQAWAEGGSPRSARSLKGDPPRGPAGRGPESPLRSPARAKASPLRRSAESRDAIASATPVPPAPPVPPVSSVRVVSASGAVSEEIEVLEMVREDEAPQPLPDSEQPPSAAELESSAEECSWAGLFSFQDLRAVHQQLCSVNSQLEPCLPVFPEEPSGMWTVLFGGAPEMTEQEIDALCYQLQVYLGHGLDTCGWKILSQVLFTETDDPEEYYESLSELRQKGYEEVLQRARRRIQELLDKHKTIESMVELLDLYQMEDEAYSSLAEATTELYQYLLQPFRDMRELAMLRRQQIKISMENDYLGPRRIESLQKEDADWQRKAHMAVLSIQDLTVKYFEITAKAQKAVYDRMRADQKKFGKASWAAAAERMEKLQYAVSKETLQMMRAKEICLEQKKHALKEEMQSLQGGTEAIARLDQLESDYYDLQLQLYEVQFEILKCEELLLTAQLESIKRLISEKRDEVVYYDTYESMEAMLEKEEMAASVHAQREELQKLQQKARQLEARRGRVSAKKAYLRNKKEICIAKHHEKFQQRFQSEDEYRAHHTIQIKRDKLHDEEERKSAWVSQERQRTLDRLRTFKQRYPGQVILKSTRLRVAHSRRKSTASPVPCEEQCHSLPTVLQGQEKTEVGGGGSQLGPSQTAEPQSLVQLEDTSSEQLESTSLPPRAVVSSELPPPQSAPLLTSIDPKPCSVTIDPLPPPLPPTPPPPPPPPPPPPPPLPVAKDNGASTTAETLEKDALRTEGNERSIPKSASAPAAHLFDSSQLVSARKKLRKTVEGLQRRRVSSPMDEVLASLKRGSFHLKKVEQRTLPPFPDEDDSNNILAQIRKGVKLKKVQKEVLRESFTLLPDTDPLTRSIHEALRRIKEASPESEDEEEALPCTDWEN
notes: also called JMY co-factor; wild-type JMY
For B5, the “fold increase in the level of co-immunoprecipitated JMY with p300” value in [9] is roughly 10 fold.

B6: STRAP8-123 (other)
chain: EAKHVLQKLQGLVDRLYCFRDSYFETHSVEDAGRKQQDVQEEMEKTLQQMEEVLGSAQVEAQALMLKGKALNVTPDYSPEAEVLLSKAVKLEPELVEAWNQLGEVYWKKGDVTSAH
notes: A pET form also exists; not shown: HA tag (pCMV-HA, in vitro translated) or His tag (pET28C, purified)
In the case of B6, the binding result is “binds” in assay [10] and “no binding” in assay [11].
